Positions count from the first letter of the chain named. In names and notes the source's numbering stands. Blank lines part the entries; values can stand above or below the binder they belong to.
Columns and labels:
[1] = biological target: T1, TNKS1-Arc1 (183–335aa) (human, UniProt O95271 183-335); assay: pull-down; 150 μg GST fusion protein on Glutathione-Sepharose 4B beads; 0.1 μM prey protein; 25 mM Hepes pH 7.4, 150 mM NaOAc, 0.2% Triton, 1 mM DTT; 4 °C, 2 h; western blot; details: both partners purified
T1 construct: human Tankyrase-1 (TNKS1), ARC (Ankyrin Repeat Cluster) domain 1, residues 183-335; pET24b plasmid; also called Arc I; ArcI; source: E. coli BL21 (DE3), purified (Ni-NTA Agarose); not shown: His6, C-terminal, kept
T1 sequence (looked up): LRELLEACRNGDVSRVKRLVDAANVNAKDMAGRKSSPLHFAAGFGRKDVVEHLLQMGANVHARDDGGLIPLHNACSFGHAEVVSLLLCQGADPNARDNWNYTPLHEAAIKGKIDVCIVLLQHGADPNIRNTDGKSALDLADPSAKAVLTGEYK

[2] = biological target: T1, TNKS1-Arc1 (183–335aa); assay: BLI; Octet RED96; GST fusion proteins loaded on GST biosensors at 10 ug/ml; TNKS1-Arc1 as analyte (0.16-4.56 μM); 25 °C; 25 mM Hepes pH 7.4, 150 mM NaOAc, 0.2% Triton, 1 mM DTT; steady-state fit; details: both partners purified

binding result [1]: binds
B1: GST-Golgin45 N70 S49D (domain or fragment, human, UniProt Q9H2G9 1-70, looked up)
chain: MTTKNLETKVTVTSSPIRGAGDGMETEEPPKSVEVTSGVQSRKHHSLQDPWKKAVPSESPGVLQLGKMLT
notes: Golgin45 (BLZF1), N-terminal residues 1-70, phospho-mimicking S49D in the Cdc2 consensus 49SPWK52; also called GST-Golgin45 S49D mutant; source: E. coli BL21 (DE3), purified (Glutathione HiCap Matrix)

Kd [2]: 2780 ± 80 nM
B2: GST-Golgin45 N70 S15D (domain or fragment, human, UniProt Q9H2G9 1-70, looked up)
chain: B1 chain with S15D, D49S
notes: Golgin45 (BLZF1), N-terminal residues 1-70, phospho-mimicking S15D in the Cdc2 consensus 15SPIR18; also called S15D mutated GST-Golgin45; Golgin45 S15D mutant; source: E. coli BL21 (DE3), purified (Glutathione HiCap Matrix)

Kd [2]: ~1460 nM
B3: GST-Golgin45 N-terminal domain (amino acid 1–70) (domain or fragment, human, UniProt Q9H2G9 1-70, looked up)
chain: B1 chain with D49S
notes: Golgin45 (BLZF1), N-terminal residues 1-70; pGEX-6p-1 plasmid; also called GST-Golgin45 N70 wt; Golgin45 N70 WT; source: E. coli BL21 (DE3), purified (Glutathione HiCap Matrix)
